Experiment: soluble on expression in E. coli; label from the status in PepcDB or PDB records
With “MLNKLMWLTGKAQEDWIEKILHLRQKIWPDYQRIKNDTLFKLYSHYPLYQWLSHYNGEVVAVINSLPVALDQSLDNLPQEGLNWVLSHLESTTPLTQSNYLAAVSVTVNPAYQRLGLSKLLLNRLKASAQEAQYKALIVPARPSQKENY” the “soluble on expression in E. coli” value was “not soluble”. For “MAHHHHHHMNRHNKFYAEVADELEGEDYYDDDDDDYNNDEEYEEEGEYDEAAYETTASAASPEPVHMPKSTTQATAPAAAAVRVNPYTTISPQVDDDYELLDVLLPQLHALWKTNAPTMLPLSEGEAVTALRASNYDVEPAFLQLKEKRDEERSKRGGGVLRVAAAAGPAKRASTPPTVEPPEPGGEAASDNEGNSASPSASSGRTTITLRGWKGASQRRTKQMLEMEPDKEKPDCTFVIAGHVDAGKSTTLGHLLLLLGRVSIQDVERNEKADRTHHKDSFKYAWLLDQCEEERRRGVTIDSGSFCFETEHRRVHILDAPGHKDFVLNMISSATQADAALLVVTATNSEFETGLHHGTKSHLLVLKTLGVGSIVVAVNKMDAVAYSQERYDYVVRELQLLLKQTRIPEEAIIGFCPISGMTGVNITQRGAKETPWYHDLSLIEMIDRCPLESRLVNSPLRLSLQDVQGTTLYAKVESGRLFTGDMVHFVPSEVRVTIKSIQKPTVAGPVLVAFAGETVEISTNSSVTGLYPGCVGCEPNLLIRSSTDFEAHIQTFRTLTKAILPGASFTIIVHALTVRVHVAALISKMDSKTGNWSKGMVKCVPPAAQAMMLFRAESPVALEPATECRALGRFVLQQDGETVAGGLVTRVVDKA”, the “soluble on expression in E. coli” value was “not soluble”. For “MIVRAINYESLHIDDRFGSIEELKTKISQKYGIPINSQHIIFNGKFYVLGIFDSPLTVSSDTYTNPLGCFGCPDSLFNDLAGNGMTTDEIREYAFPHKDDPAKREGPDLSSVIDTRAIAKRITENRYEDAYKIPNDLSEKEKTIIMESSGEYIDLVLKQIKEILRSNTKY”, the “soluble on expression in E. coli” value was “not soluble”. For “MSLNNVIFSQKLYDTAQMIVDGCMGDADPACQTACPMHTDVKQYVRMAGEGNFQGALDLIRSKLFLPQTLGRICAHPCEASCRRNTEFGQPISVAGIKRFVAEKMDNQDHWDLNIAPLTNKHIAIVGAGPAGAQAAIELRRQGHEVTIYEKLDVYGGMMRVGIPEYRLPRDVIDFEYSYLAMLGIKTQFGVEIGKDISFDTLRSEHDAVILAHGAHVGSIIPLPGHDNDGVFSAVEYLKEISETRQFPRACKRVMVIGGGDVAMDCARSSWRIGASDVYQCSLESLESLPASQIEIDESLEEGVEFNAGWGPVAIEHENGKVTGITIKKVLSIFDEQGNFAPQYSEESKTISVDTVVFATGQIVADITDGALEQTRGGRYVVDKQTLASSLEDVFVAGDACGGNIVIEAMALGRKAAMSVERFLTARPLTEDREGHHHHHH”, the “soluble on expression in E. coli” value was “soluble”. With “MLIRKITRKNPSPDVLEEAISVMEGGGIVIYPTDTIYGLGVNALDEDAVRRLFRVKGRSPHKPVSICVSCVDEIPRFSRPSGDAMELMERILPGPYTVVLERNELIPDVITGGSSRVGIRVPDDEICRRIAARFPVTATSANISGKPPSPRLEEIVRDLDAVDLVLDAGDCLDMEPSTVIDLTVNPPRVLRRGKGPLDPVLLRGAGDV” the “soluble on expression in E. coli” value was “soluble”. For “KKEEASSKSYRELIIEGLTALKERKGSSRPALKKFIKENYPIVGSASNFDLYFNNAIKKGVEAGDFEQPKGPAGAVKLAKKKSPEVKKEKEVS”, the “soluble on expression in E. coli” value was “soluble”. With “MIKMTQSRLHAAQNALAKLHEHRGNTFYPHFHLAPPAGWMNDPNGLIWFNDRYHAFYQHHPMSEHWGPMHWGHATSDDMIHWQHEPIALALGDDNDKDGCFSGSAVDDNGVLSLIYTGHVWLDGAGNDDAIREVQCLATSRDGIHFEKQGVILTPPEGIMHFRDPKVWREADTWWMVVGAKDPGNTGQILLYRGSSLREWAFDRVLAHADAGESYMWECPDFFSLGDQHYLMFSPQGMNAEGYSYRNRFQSGVIPGMWSPGRLFAQSGHFTELDNGHDFYAPQSFLAKDGRRIVIGWMDMWESPMPSKREGWAGCMTLARELSESNGKLLQRPVHEAESLRQQHQSVSPRRISNKYVLQENAQAVEIQLQWALKNSDAEHYGLQLGTGMRLYIDNQSERLILWRYYPHENLDGYRSIPLPQRDTLALRIFIDTSSVEVFINDGEAVMSSRIYPQPEERELSLYASHGVAVLQHGALWLLGLEHHHHHH” the “soluble on expression in E. coli” value was “soluble”. In the case of “MGSDKIHHHHHHMPRGDIGIDLGTASIIVYKRGEGIVLHEPSVVAISEKTGEIVAIGEEAKKMLGKTPEGLKAIRPMKDGVIADYRMIEAIIRNFLKKIIGRFSFVKPSLIIGVPTKITEVEKRAVFEAGLNAGARRVHIVSEPIAAAIGAGIDVMASEGNMVVDIGGGTTDIAVISLGGTVVGESVRMAGDAMDEAIVKFIRKKYGLIIGESTAEEIKKRIGKTHPAFENYEIEIKGRDVVTGLPRTDRVSSEDVREAIEPIIFALLTKLKNVLERTPPELSADIINNGIRLTGGGALLRGLDRTIYDEIHVKTIVADDPITCVARGTGILLEDEKLLKTVCETYSR”, the “soluble on expression in E. coli” value was “not soluble”. For “MRNIMEQYTEKPEILMLTQQSLQSENFKEMLSKNTETKITIIDAKNPSYHELIPDRYFLLVDFSVDTPSDTLVYLKDSNKVLGTIMLNLGYDLDTEELASWPHVKGIFGPLDSMEKVCRGLGAIVKGDNWLSRRLLDQLVNYYKGKESNNVSEP”, the “soluble on expression in E. coli” value was “not soluble”. With “MGSDKIHHHHHHMIEFDNLTYLHGKPQGTGLLKANPEDFVVVEDLGFEPDGEGEHILVRILKNGCNTRFVADALAKFLKIHAREVSFAGQKDKHAVTEQWLCARVPGKEMPDLSAFQLEGCQVLEYARHKRKLRLGALKGNAFTLVLREVSNRDDVEQRLIDICVKGVPNYFGAQRFGIGGSNLQGAQRWAQTNTPVRDRNKRSFWLSAARSALFNQIVAERLKKADVNQVVDGDALQLAGRGSWFVATTEELAELQRRVNDKELMITAALPGSGEWGTQREALAFEQAAVAAETELQALLVREKVEAARRAMLLYPQQLSWNWWDDVTVEIRFWLPAGSFATSVVRELINTTGDYAHIAE” the “soluble on expression in E. coli” value was “not soluble”. In the case of “MGSDKIHHHHHHMKSVTVADLKADPIVQGYIEVGNRNLAAIGFTEHGLRHVGLVSNIAYNILEKLGYSERECELAAVAAYLHDIGNVINRSGHAQTGALLSAHILERHAMAPEEIAIVIGAIGNHDESDGNPVSNISAALILADKSDVHRSRVRNQDPATFDIHDRVNYAVEHSFLRVYPKDRVALEITINTEICPVMDYFEIFLARMLLCRRAASFLDTVFELKINEVKLL”, the “soluble on expression in E. coli” value was “not soluble”. With “MAMRHLSRSRDVTKRSTKKYIEEPLYNRLFKDGGTEVKVRQQLNQFLKGTKHVFKWEVGDTIKKLRNRGLYYPALKLSEVMEERGMNKTVSDQAIHLDLVAKAREITAGENYFVDLPETSKTELTYGSLLNCYCKELLTEKAEGLLNKMKELNITPSSMSYNSLMTLYTKTGETEKVPAMIQELKAENVMPDSYTYNVWMRALAATNDISGVERVIEEMNRDGRVAPDWTTYSNMASIYVDAGLSQKAEKALQELEMKNTQRDFTAYQFLITLYGRLGKLTEVYRIWRSLRLAIPKTSNVAYLNMIQVLVKLNDLPGAETLFKEWQANCSTYDIRIVNVLIGAYAQEGLIQKANELKEKAPRRGGKLNAKTWEIFMDYYVKSGDMARALECMSKAVSIGKGDGGKWLPSPETVRALMSYFEQKKDVNGAENLLEILKNGTDNIGAEIFEPLIRTYAAAGKSHPAMRRRLKMENVEVNEATKKLLDEVSQDV” the “soluble on expression in E. coli” value was “soluble”. For “ARVDQTPQTITKETGESLTINCVLRDSNCALSSTYWYRKKSGSTNEESISKGGRYVETVNSGSKSFSLRINDLTVEDSGTYRCKPESRYGSYDAECAALNDQYGGGTVVTVNAAAHHHHHH”, the “soluble on expression in E. coli” value was “soluble”. For “MGSDKIHHHHHHMGTRLDILMIHSNLPLLNMLWAHITDELERLDKMLNRFDATSEVSKLNSHTQQDSVSVSAELEDILRSCQYYYEKTLHLFDITLNDFSQIQIHGNHHISFSNFSVTLDFGGFAKGYALKKIQEILLRGNIENAFVDFGNSSIMGIGHHPYGDCWKVSLQNPYTQQTLDEFCLTDNTLSTSGNTEQYTGHIINPLTGIYNEQKKVTSILSDNPLDAEILSTVWMIADDQQREQINENFKHIKGTIYTL”, the “soluble on expression in E. coli” value was “not soluble”. For “MSLTITVLQGGNVLDLERGVLLEHHHVVIDGERIVEVTDRPVDLPNAQAIDVRGKTVMPGFIDCHVHVLASNANLGVNATQPNILAAIRSLPILDAMLSRGFTSVRDAGGADWSLMQAVETGLVSGPRIFPSGKALSQTGGHGDFRPRGDLLEPCSCCFRTGAIARVVDGVEGVRLAVREEIQKGATQIKIMASGGVASPTDPIANTQYSEDEIRAIVDEAEAANTYVMAHAYTGRAIARAVRCGVRTIEHGNLVDEAAAKLMHEHGAFVVPTLVTYDALAKHGAEFGMPPESVAKVASVQQKGRESLEIYANAGVKMGFGSDLLGEMHAFQSGEFRIRAEVLGNLEALRSATTVAAEIVNMQGQLGVIAVGAIADLVVLDGNPLEDIGVVADEGARVEYVLQRGTLVKRQAAGREGHHHHHH”, the “soluble on expression in E. coli” value was “soluble”. In the case of “MERNELFDLQTLSTRRKIIDRIQVTRMNTGKVDLKTSEFFEQQETQTRSKKKYIWSTGKSKLRRHFFVNRTLPTMKQH”, the “soluble on expression in E. coli” value was “not soluble”. For “SFRDCAEVFKSGHTTNGIYTLTFPNSTEEIKAYCDMEAGGGGWTIIQRREDGSVDFQRTWKEYKVGFGNPSGEYWLGNEFVSQLTNQQRYVLKIHLKDWEGNEAYSLYEHFYLSSEELNYRIHLKGLTGTAGKISSISQPGNDFSTKDGDNDKCICKCSQMLTGGWWFDACGPSNLNGMYYPQRQNTNKANGIKWAAWKGSGYSLKATTMMIRPADF”, the “soluble on expression in E. coli” value was “soluble”. In the case of “MSLSKPLQVNPHKLSPVMGAHLACLGVDGVMPIIHGAQGCSNFSKVFFTRHFSEPIVSHSTAVNDITAVLDGGACVAEAIDTLAKKSPFKLAAIITTGLTETKGDDVKGAIGQLSYPALYFPTPDYEGGLEEGFALAIEVFIKERMVSVTTPDPKLALILPHASMTPLEVEKLKEFLEDFGVRALALPDLSGSLDGHLEERQGSVSKGGITLEEIEEASRAGMILSIGESTRKARQAFLAKNPGAFDLNVESLYGLRSSDALIRALMDWTGHEPSVRIKRWRARLQDMMLDSHFALGGKRVIAALENDHLLGISKILEEVGMSFELAVATTGGPAMTKISAKEAVVGDLEHLMQNIESSEGVIACERLGGFLPKETPWLVRGYPIFERIGTGLGNDILYEGGCYLLKELANLFLKEHQAHEGHHHHHH”, the “soluble on expression in E. coli” value was “soluble”. With “MIEVKPINAEDTYELRHRILRPNQPIEACMFESDLLRGAFHLGGYYGGKLISIASFHQAEHSELQGQKQYQLRGMATLEGYREQKAGSSLIKHAEEILRKRGADLLWCNARTSASGYYKKLGFSEQGEVFDTPPVGPHILMYKRIT” the “soluble on expression in E. coli” value was “soluble”. With “GMEFLMKISHLDHLVLTVADIPTTTKFYEKVLGMKAVSFGSGRIALEFGHQKINLHQLGHEFEPKAQNVRTGSADLCFITDIDLSDAMEYVENQGVVIMEGPVKRTGAQGAITSFYFRDPDGNLIEVSTYSNT” the “soluble on expression in E. coli” value was “soluble”. With “MRYCQFEGCSNTTEKGAYCSEHARKSRKKKKPINVYHHDNKSFYRTKEWQDVADFVYEREGGCCQRCGRFVFGRQAHRHHVIPIKKNEMLKLDPNNIRLLCPKCHVIEENEADEKKVFPSYFKK” the “soluble on expression in E. coli” value was “not soluble”. In the case of “MSLSQFAAGAGKKAGEFYTPQEVSRILAEIVAIGHQRLRNVYDPTCGSGSLLLRAASIGNAVDIYGQEKNPTTYNLARMNMLLHGIRFSNFKIENGDTLEWDAFGDTQFDAVVANPPFSAEWSAADKFNTDDRFSKAGRLAPRKTADYAFILHMIYHLNEGGTMACVAPHGVLFRGNAEGVIRRFLIEKKNYVDAIIGLPANIFYGTSIPTCILVFKKEGHHHHHH”, the “soluble on expression in E. coli” value was “not soluble”.

Reference: the DeepSol protein solubility set
